We go through 2 molecules from article PMC11162806 (Nucleic Acids Research, 2024).

The experiment concerns the target T1, TwinStrep-tagged UPF1 CH domain (residues 110-282) (human, UniProt Q92900 110-282).
T1 sequence (looked up): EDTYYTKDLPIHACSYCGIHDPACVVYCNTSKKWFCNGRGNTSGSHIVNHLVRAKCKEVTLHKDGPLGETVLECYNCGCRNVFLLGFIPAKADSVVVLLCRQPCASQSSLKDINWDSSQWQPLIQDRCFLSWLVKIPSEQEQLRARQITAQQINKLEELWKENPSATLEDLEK
As to the kind of experiment: ITC.

With EKQESKNPKQELRGRGRGILILPAHTTLSVNSAGSPESAPL (domain or fragment, human, UniProt Q86US8 390-430, looked up) [MBP-tagged SMG6 residues 390-430 (SMG6 CH-binding domain)], the Kd (usually the free concentration of one partner at which half of the binding sites on the other are occupied at equilibrium, for simple one-to-one binding) was 4280 ± 250 nM.

B1: MBP-tagged UPF2 residues 1095-1250 (UPF2 CH-binding domain) (domain or fragment, human, UniProt Q9HAU5 1095-1250, looked up)
chain: VMIKGGGLKHVPCVEDEDFIQALDKMMLENLQQRSGESVKVHQLDVAIPLHLKSQLRKGPPLGGGEGEAESADTMPFVMLTRKGNKQQFKILNVPMSSQLAANHWNQQQAEQEERMRMKKLTLDINERQEQEDYQEMLQSLAQRPAPANTNRERRP
For B1, the Kd was determined as 1460 ± 250 nM.
